According to the nanobody polyreactivity screen of Harvey et al. (2022):

Assay: yeast display, Sf9 membrane polyspecificity reagent, FACS + sequencing; frameworks hold sequencing errors
How it was run: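 Galactose induction of a Saccharomyces cerevisiae BJ5465 synthetic nanobody display library ran 36–48 hours. The cells were then stained for 1 hour at 4 °C with 10% biotinylated, detergent-solubilized Sf9 membrane reagent, pulled down on streptavidin microbeads and FACS-sorted into low and high (top ~1%) gates on expression and reagent-binding fluorescence. Labels for polyreactivity follow the gate of origin.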

Q: With “QVQLVESGGGLVQAGGSLRLSCAASGSTFHNYAMGWYRQAPGKERELVAGISVRGGGTYYADSVKGRFTISRDNAKNNVYLQMNSLKPEDTAVYYCAKRSRYYYRYDYWGQGSQVTVSS” as the sequence, how does the “polyreactivity (PSR sort gate)” value read?
A: high polyreactivity

Q: For “QVQLVESGGGLVQAGGSLRLSCAASGSTFHPYAMGWYIQAPGKERELVAAITWRVGSTYYADSVKGRFTISRDNAKNTVYLQMNSLKPEDTAVFYCAVSYLSSLGRSRYDYWGQGTQVTVSS”, which “polyreactivity (PSR sort gate)” value is on record?
A: low polyreactivity

Q: For “QVQLVESGGGLVQAGGSLRLSCAASGSTFHRNAMGWYRQAPGKERELVAAITSGGSTNYADSEKGRFTISRDNAKNTVYLQMNRLKPEDTPVYYCAKDDRHYNRGWYDYWGQGTQVTVSS”, which “polyreactivity (PSR sort gate)” value is on record?
A: low polyreactivity

Q: For “QVQLVESGGGLVQAGGSLRLSCAASGSTFHSNAMGWYRQAPGKERELVAAISQGGGRTYYADSVKGRFTISRDNAKNTVYLQMNSLKPEDTAVYYCNRRTRGLIDGGMDYWGQGTQVTVSS”, which “polyreactivity (PSR sort gate)” value is on record?
A: low polyreactivity

Q: Which “polyreactivity (PSR sort gate)” value does the source give for “QVQLVESGGGLVQAGGSLRLSCAASGSTFHTNSMGGYRQAPGKETELVAAIRSGGGTNYADSVKGRFTISRDNAKNTVYLQMNSLKPEDTAVYYCNASPLPYSHRGDYWGQGTQVTVSS” here?
A: low polyreactivity

Q: With “QVQLVESGGGLVQAGGSLRLSCAASGSTFHVNAMGWYRQAPGKEREFGAVISSSAGRTYYADSVKGRFTISRDNAKNTVYLQMNSLKPEDTAVYYCAAGTFKPYWRKFEYWGQGTQVTVSS” as the sequence, how does the “polyreactivity (PSR sort gate)” value read?
A: high polyreactivity

Q: With “QVQLVESGGGLVQAGGSLRLSCAASGSTFHYYAMGWYRQAPGKERELVAAIRTSGGSTYYADSVKGRFTISRDNAKNTVYLQMNSLKPEDTAVYYCNRVLGYPYGVDYWGQGTQVTVSS” as the sequence, how does the “polyreactivity (PSR sort gate)” value read?
A: high polyreactivity

Q: For “QVQLVESGGGLVQAGGSLRLSCAASGSTFHYYAMGWYRQAPGKERELVAAISGSGSSTYYADSVKGRFTISRDNAKNTVYLQMNRLKPEDTAVYYCNARGHYPRARFGYKSGSDRYWGQGTQVTVSS”, which “polyreactivity (PSR sort gate)” value is on record?
A: high polyreactivity

Q: Which “polyreactivity (PSR sort gate)” value does the source give for “QVQLVESGGGLVQAGGSLRLSCAASGSTFHYYAMGWYRQAPGKERELVAAISKRGTSTYYADSVKGRFTISRDNAKNTVYLQMNSLKPEDTSVYYCNRYPIRYKHRGLDYWGHGTQVTVSS” here?
A: high polyreactivity

Q: Which “polyreactivity (PSR sort gate)” value does the source give for “QVQLVESGGGLVQAGGSLRLSCAASGSTFHYYAMGWYRQAPGKERELVATITWRGGFTYYADSVKGRFTISRDNAKNTVYLQMNSLKPEDTAGYYCTDYSVRRYRDPRLYYWGQGTQVTVSS” here?
A: high polyreactivity

Q: Which “polyreactivity (PSR sort gate)” value does the source give for “QVQLVESGGGLVQAGGSLRLSCAASGSTFHYYARGWYRQAPGKERELVAAISQSGSGTYYADSVKGRFTISRDYAKNTVYLQMNSLKPEDTAVYYCAKDITGLSRYRRDYWGQGTQVTVSS” here?
A: low polyreactivity

Q: With “QVQLVESGGGLVQAGGSLRLSCAASGSTFIFNAMGWYRQAPGKERELVAGISSGSPYYADSVKGRFTISRDNAKNTVYLQMNSLIPEDTAVYYCATKLRRWRFYAAYDYWGQGTQVTVSS” as the sequence, how does the “polyreactivity (PSR sort gate)” value read?
A: high polyreactivity

Q: With “QVQLVESGGGLVQAGGSLRLSCAASGSTFIFYTMGWYRQAPGKERELVAAITSNGGSTYYADSVKGRFTISRDNAKNTVYFQMNSLKPEDTAVYYCARVDRWRRYRYIFSGYDYWGQGTQVTVSS” as the sequence, how does the “polyreactivity (PSR sort gate)” value read?
A: high polyreactivity

Q: With “QVQLVESGGGLVQAGGSLRLSCAASGSTFIIYAMGWYRQAPGKERELVAAISWSGGSTYYADSVKGRFTISRDNAKNTVYLQMNSLKPEDTAVYYCAVVYRTRWSDYDYWGQGTQVTVSS” as the sequence, how does the “polyreactivity (PSR sort gate)” value read?
A: high polyreactivity

Q: Which “polyreactivity (PSR sort gate)” value does the source give for “QVQLVESGGGLVQAGGSLRLSCAASGSTFIKYTMGWYRQAPGKERELVAAISVRGGSTTYADSVKGRFTISRDNAKNTVYLQRNSLKPEDTAVYYCAKDHYYAGTWRYGYWGQGTQVTVSS” here?
A: high polyreactivity

Q: Which “polyreactivity (PSR sort gate)” value does the source give for “QVQLVESGGGLVQAGGSLRLSCAASGSTFILYAMGCYIQAPGKERELVAAITASGGSTYADSVKGRFTISRDNSKNTVYLQMNSLKPEDSAVYYCAARRWSSKYRKYDYWGQGTQVTVSS” here?
A: high polyreactivity

Q: For “QVQLVESGGGLVQAGGSLRLSCAASGSTFIPYTMGWYRQAPGKERELVAAISGRGGRTYYADSVKGRFTISRDNAKNTVYLQMNSLKPEDTAVYYCNRVLRYGPSAQYDYWGQGTQVTVSS”, which “polyreactivity (PSR sort gate)” value is on record?
A: high polyreactivity

Q: For “QVQLVESGGGLVQAGGSLRLSCAASGSTFIRYAMGWYRQAPGKERELVAAITSGGRTNYADSVKGRFTISRDNAKNTVYLQMNSLKPEDTAVYYCAKLRWVYGRQTLMDYWGQGTQVTVSS”, which “polyreactivity (PSR sort gate)” value is on record?
A: high polyreactivity

Q: Which “polyreactivity (PSR sort gate)” value does the source give for “QVQLVESGGGLVQAGGSLRLSCAASGSTFISNTMGWYRQAPGKERELVAGISSIGGITYYADSVKGRFTISRDNAKNTVYLQMNSLKPEDTAVYYCAKLDVISDDLDYWGQGTQVTVSS” here?
A: low polyreactivity

Q: With “QVQLVESGGGLVQAGGSLRLSCAASGSTFITNAMGGYRQAPGKERELVATISRSGGRTYYADSVKGRFTISRDNAKNSVYLEMNSLNPEDTAVFYCAKRYGSKFEYWGLGTQVTVSS” as the sequence, how does the “polyreactivity (PSR sort gate)” value read?
A: high polyreactivity

Q: For “QVQLVESGGGLVQAGGSLRLSCAASGSTFITNTMGWYRQAPGKERELVAAISKSGGSTYYADSVKGRFTISRDNAKNTVYLKMNSLKAEDTAVYYCAADIYVRDRGVKYDYWRQGTQVTVSS”, which “polyreactivity (PSR sort gate)” value is on record?
A: low polyreactivity

Q: Which “polyreactivity (PSR sort gate)” value does the source give for “QVQLVESGGGLVQAGGSLRLSCAASGSTFIVYAMGWYRQAPGKERELVAAISLDGGSTYYADSVKGRFTISRDNAKNTVYLQMNSLKPEDTAVYYCNADYYANSITYDSWGQGTQVTVSS” here?
A: low polyreactivity

Q: Which “polyreactivity (PSR sort gate)” value does the source give for “QVQLVESGGGLVQAGGSLRLSCAASGSTFIVYAMGWYRQAPGKERELVAAITRGGSTNYADSVKGRFTISRDNAKNTVYLQMNSLKPEDTAVYYCAAPYAGWRDGGDYWGQGTQVTVSS” here?
A: low polyreactivity

Q: Which “polyreactivity (PSR sort gate)” value does the source give for “QVQLVESGGGLVQAGGSLRLSCAASGSTFIYYAMGWYRQAPGKEREFVAAISYRGGSTYYADSVKGRFTISRDNAKYTVYLQMNSLKPEDTAVYYCAASYRSWWETYLRGDYWGQGTQVTVSS” here?
A: high polyreactivity

Q: Which “polyreactivity (PSR sort gate)” value does the source give for “QVQLVESGGGLVQAGGSLRLSCAASGSTFIYYAMGWYRQAPGKERELVAGISIRGGSTYADSVKGRFTISRDNAKNTVYLQMNSVKPEDTAVYYCNAYKRIKANGYAIRYYYWGQGTQVTVSS” here?
A: high polyreactivity

Q: Which “polyreactivity (PSR sort gate)” value does the source give for “QVQLVESGGGLVQAGGSLRLSCAASGSTFKAYAMGWYRQAPGKEREFVAAITRSGGRTYYADSVKGRFTISRDNAKNTVYLQMNSLKPEDTAVYYCAAYTWYAWVSDPTNEYWGQGTQVTVSS” here?
A: low polyreactivity

Q: With “QVQLVESGGGLVQAGGSLRLSCAASGSTFKDNAMGRYIQAPGKERELVARITYRGGRTYADSVKGRFTISRDNAKNTVYFQMNSLKPEDTAVYYCAARPSLYGHNSRYDYWGQGTQVTVSS” as the sequence, how does the “polyreactivity (PSR sort gate)” value read?
A: low polyreactivity

Q: For “QVQLVESGGGLVQAGGSLRLSCAASGSTFKDNAMGWYRLAPGKERELVARITYRGGRTYADSVKGRFTISRDNAKNTVFLQMNSLKPEDTAVYYCAARPSLYGHNSRYDYWGQGTQVTVSS”, which “polyreactivity (PSR sort gate)” value is on record?
A: low polyreactivity

Q: Which “polyreactivity (PSR sort gate)” value does the source give for “QVQLVESGGGLVQAGGSLRLSCAASGSTFKFYAMGWYRQAPGKARELVASITSSSGPTYYADSVKGRFTISRDNAKNTVYLQMNSLKPEDPAVYYCNKDWRRYWLRGDYWGQGTQVTVSS” here?
A: low polyreactivity

Q: With “QVQLVESGGGLVQAGGSLRLSCAASGSTFKIYAMGWYRQAPGKERELVASIRGRGGSTYYADSVKGRFTISRDNAKNTVYLQLNSLKPEDTAVYYCNATYGHRYAPGISYDYWGQGSQVTVSS” as the sequence, how does the “polyreactivity (PSR sort gate)” value read?
A: high polyreactivity

Q: For “QVQLVESGGGLVQAGGSLRLSCAASGSTFKIYARGWYRQAPGKERELVARITGRGGSTYYADSVKGRFTISRDNAKNTVYLQMNSLKPEDTAVYYCAARVYTYYYDLHKRYYWGQGTQVTVSS”, which “polyreactivity (PSR sort gate)” value is on record?
A: high polyreactivity

Q: Which “polyreactivity (PSR sort gate)” value does the source give for “QVQLVESGGGLVQAGGSLRLSCAASGSTFKKYVMGWYRQAPGKERELVAAISGRGGSTYYADSVKGRFTISRDNAKNTVYLQMNSLKPEDTAVYYCNARKQTARFDSWGQGTQVTVSS” here?
A: high polyreactivity

Q: For “QVQLVESGGGLVQAGGSLRLSCAASGSTFKNYAMGWYRQAPGKERELVAAINVSGARTYYADSVKGRFTISRDNAKNTVYLQMNSLKPEDTAVYYCAAYYSGVGYDYWGQGTQVTVSS”, which “polyreactivity (PSR sort gate)” value is on record?
A: high polyreactivity

Q: Which “polyreactivity (PSR sort gate)” value does the source give for “QVQLVESGGGLVQAGGSLRLSCAASGSTFKRNAMGWSRQAPGKEWELVAAITFSGATTYYADSVKGRFTISRDNAKNTVYLQMNSLKPEDTAVYYCATKAYTTGRYYWGQGTQVTVSS” here?
A: high polyreactivity

Q: Which “polyreactivity (PSR sort gate)” value does the source give for “QVQLVESGGGLVQAGGSLRLSCAASGSTFKRNAMGWYRPAPGKERELVAAITFSGATTYYADSVKGRFTISRDNAKNTVYLQMNSLKPEDTAVYYCATKAYTTGRYYWGQGTQVTVSS” here?
A: high polyreactivity

Q: For “QVQLVESGGGLVQAGGSLRLSCAASGSTFKRNAMGWYRPATGKERELVATITRRGGSTYADSVKGRFTISRDNAKNTVYLQMNSLKPEDTAVYYCNADSRPLSTYYYWGQGTQVTVSS”, which “polyreactivity (PSR sort gate)” value is on record?
A: low polyreactivity

Q: With “QVQLVESGGGLVQAGGSLRLSCAASGSTFKRNAMGWYRQAPGKERELVAAITSGGSTYYADSVKGRFTISRDNAKNTVYLQMNSLKPEDTAVYYCNKVRGAFYSHLFDYWGQGTQVTVSS” as the sequence, how does the “polyreactivity (PSR sort gate)” value read?
A: high polyreactivity

Q: With “QVQLVESGGGLVQAGGSLRLSCAASGSTFKRNAMGWYRQATGKERELVAAISTNGGRTYYADSVKGRFTISRDNAKNTVYLQMNSLKPEDTAVYYCAVDLFDGVTKLNYDYWGQGTQVTVSS” as the sequence, how does the “polyreactivity (PSR sort gate)” value read?
A: low polyreactivity

Q: Which “polyreactivity (PSR sort gate)” value does the source give for “QVQLVESGGGLVQAGGSLRLSCAASGSTFKRNTMGWYRQAPGKERELVAAISRSGGYTYYADSVKGRFTISRDNAKNTVYLQMNSLNPEDTAVYYCNANVSSYVGSRSYGLSPYDYWGQGTQVTVSS” here?
A: high polyreactivity

Q: Which “polyreactivity (PSR sort gate)” value does the source give for “QVQLVESGGGLVQAGGSLRLSCAASGSTFKSYAMGWYRQAPGKERELVAAISRSGGRTYYADSVKGRFTISRDNAKNTVYLQMNSLKPEDTAVYYCATGVKREGDYWGQGTQVTVSS” here?
A: high polyreactivity

Q: With “QVQLVESGGGLVQAGGSLRLSCAASGSTFKSYAMGWYRQAPGKERELVAAITHRGSTYYADSVKGRFTTSRDNAKNTVYLQMNSLKPEDTAVYYCNVRRIGNGRRVDYWGQGTQVTVSS” as the sequence, how does the “polyreactivity (PSR sort gate)” value read?
A: high polyreactivity

Q: For “QVQLVESGGGLVQAGGSLRLSCAASGSTFKSYAMGWYRQEPGKERELVAAITVSGGSTYYADSVKGRFTISRDNAKNTVYLQMNSLKPEDTAVYYCAADSVLLKDTGYDYWGQGTQVTVSS”, which “polyreactivity (PSR sort gate)” value is on record?
A: low polyreactivity

Q: For “QVQLVESGGGLVQAGGSLRLSCAASGSTFKTYTMGWYRQAPGKERELVAGITSGGSTSYADSVKGRFTISRDNAKNTVYLQMNSLKPEDTAVYYCNADAYLVIYFYTVRDYGYDYWGQGTQVTVSS”, which “polyreactivity (PSR sort gate)” value is on record?
A: low polyreactivity
